From US20260217864A1 (JANUX THERAPEUTICS, published 2026)
Positions count from the first letter of the chain named. Read-outs that look alike come from different tables or passages of the source.

B1: TCE-69 (bispecific antibody)
light: DIQMTQSPSSLSASVGDRVTITCKSSQSLLYRSNQKNYLAWYQQKPGKAPKLLIYWASTRESGVPSRFSGSGSGTDFTLTISSLQPEDFATYYCQQYYNYPRTFGQGTKVEIKRTVAAPSVFIFPPSDRKLKSGTASVVCLLNNFYPREAKVQWKVDNALQSGNSQESVTEQDSKDSTYSLSSTLTLSKADYEKHKVYACEVTHQGLSSPVTKSFNRGEC
chain: not shown
heavy: not shown
B2: TCE-26 (bispecific antibody)
light: not shown
heavy: EVQLVESGGGLVQPGGSLRLSCAVSGYSITSDYAWNWVRQAPGKGLEWVGYISNSGSTSYNPSLKSRFTISRDTSKNTLYLQMNSLRAEDTAVYYCARERNYDYDDYYYAMDYWGQGTLVTVSSASTKGPSVFPLAPSSKSTSGGTAALGCLVKDYFPEPVTVSWNSGALTSGVHTFPAVLQSSGLYSLSSVVTVPSSSLGTQTYICNVNHKPSNTKVDKKVEPKSC
B3: TCE-87 (bispecific antibody)
light: not shown
heavy: B2 heavy
B4: TCE-81 (bispecific antibody)
light: not shown
heavy: B2 heavy
B5: TCE-80 (bispecific antibody)
light: not shown
heavy: B2 heavy
B6: TCE-89 (bispecific antibody)
light: not shown
heavy: B2 heavy
B7: TCE-58 (bispecific antibody)
light: not shown
heavy: B2 heavy
B8: TCE-85 (bispecific antibody)
light: not shown
heavy: B2 heavy
B9: TCE-82 (bispecific antibody)
light: not shown
heavy: B2 heavy
B10: TCE-4 (bispecific antibody)
light: not shown
heavy: B2 heavy with V24A, Y27F, T58I, T74N
B11: TCE-88 (bispecific antibody)
light: not shown
heavy: B2 heavy
B12: TCE-79 (bispecific antibody)
light: not shown
heavy: B2 heavy
B13: TCE-55 (bispecific antibody)
light: not shown
heavy: B2 heavy
B14: TCE-84 (bispecific antibody)
light: not shown
heavy: B2 heavy
B15: TCE-83 (bispecific antibody)
light: not shown
heavy: B2 heavy
B16: TCE-86 (bispecific antibody)
light: not shown
heavy: B2 heavy
B17: TCE-90 (bispecific antibody)
light: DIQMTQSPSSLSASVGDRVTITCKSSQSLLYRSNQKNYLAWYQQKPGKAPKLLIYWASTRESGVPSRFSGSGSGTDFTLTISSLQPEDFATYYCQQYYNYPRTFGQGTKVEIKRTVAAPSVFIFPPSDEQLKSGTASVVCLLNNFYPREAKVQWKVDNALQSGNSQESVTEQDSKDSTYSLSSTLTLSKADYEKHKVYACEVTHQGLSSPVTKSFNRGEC
heavy 1: EVQLVESGGGLVQPGGSLRLSCAVSGYSITSDYAWNWVRQAPGKGLEWVGYISNSGSTSYNPSLKSRFTISRDTSKNTLYLQMNSLRAEDTAVYYCARERNYDYDDYYYAMDYWGQGTLVTVSSASTKGPSVFPLAPSSKSTSGGTAALGCLVKDYFPEPVTVSWNSGALTSGVHTFPAVLQSSGLYSLSSVVTVPSSSLGTQTYICNVNHKPSNTKVDKKVEPKSCDKTHTCPPCPAPELLGG
chain: not shown
heavy 2: not shown
B18: TCE-93 (bispecific antibody)
light: EIVLTQSPATLSLSPGERATLSCRASSSVSYMHWFQQKPGQAPRLLIYSTSNLASGIPARFSGSGSGTDYTLTISSLEPEDFAVYYCQQRRSFPYTFGQGTKLEIKRTVAAPSVFIFPPSDEQLKSGTASVVCLLNNFYPREAKVQWKVDNALQSGNSQESVTEQDSKDSTYSLSSTLTLSKADYEKHKVYACEVTHQGLSSPVTKSFNRGEC
heavy 1: QVQLVQSGAEVKKPGASVKVSCKASGYTFSTYWIEWVRQAPGQRLEWMGEILPGSGQTDFNEKFQGRVTFTADTSSDTAYMELSSLRSEDTAVYYCTRWGYYGTRGYFNVWGQGTLVTVSSASTKGPSVFPLAPSSKSTSGGTAALGCLVKDYFPEPVTVSWNSGALTSGVHTFPAVLQSSGLYSLSSVVTVPSSSLGTQTYICNVNHKPSDTKVDKKVEPKSCDKTHTCPPCPAPPVAGPSVFLFPPKPKDTLMISRTPEVTCVVVDVKHEDPEVKFNWYVDGVEVHNAKTKPCEEEYGSTYRCVSVLTVLHQDWLNGKEYKCKVSNKALPAPIEKTISKAKGQPREPQVYTLPPSREEMTKNQVSLTCDVSGFYPSDIAVEWESDGQPENNYKTTPPVLDSDGSFFLYSKLTVDKSRWEQGDVFSCSVMHEALHNHYTQKSLSLSPGK
heavy 2: QVQLVQSGAEVKKPGASVKVSCKASGYTFSTYWIEWVRQAPGQRLEWMGEILPGSGQTDFNEKFQGRVTFTADTSSDTAYMELSSLRSEDTAVYYCTRWGYYGTRGYFNVWGQGTLVTVSSASTKGPSVFPLAPSSKSTSGGTAALGCLVKDYFPEPVTVSWNSGALTSGVHTFPAVLQSSGLYSLSSVVTVPSSSLGTQTYICNVNHKPSNTKVDKKVEPKSCGGGGSGGGGSEVQLVESGGGLVQPGGSLRLSCAASGFTFSTYAMNWVRQAPGKGLEWVGRIRSKYNNYATYYADSVKGRFTISRDDSKNTLYLQMNSLRAEDTAVYYCVRHGNFGDSYVSWFAYWGQGTLVTVSSGKPGSGKPGSGKPGSGKPGSQAVVTQEPSLTVSPGGTVTLTCGSSTGAVTTSNYANWVQQKPGKSPRGLIGGTNKRAPGVPARFSGSLLGGKAALTISGAQPEDEADYYCALWYSNHWVFGGGTKLTVLGGGGSGGGGSKTHTCPPCPAPPVAGPSVFLFPPKPKDTLMISRTPEVTCVVVDVKHEDPEVKFNWYVDGVEVHNAKTKPCEEQYGSTYRCVSVLTVLHQDWLNGKEYKCKVSNKALPAPIEKTISKAKGQPREPQVYTLPPSREQMTKNQVKLTCLVKGFYPSDIAVEWESNGQPENNYKTTPPVLDSDGSFFLYSKLTVDKSRWQQGNVFSCSVMHEALHNHYTQKSLSLSPGK
B19: TCE-75 (bispecific antibody)
light: B18 light
heavy: not shown
B20: TCE-76 (bispecific antibody)
light: not shown
heavy: QVQLVQSGAEVKKPGASVKVSCKASGYTFSTYWIEWVRQAPGQRLEWMGEILPGSGQTDFNEKFQGRVTFTADTSSDTAYMELSSLRSEDTAVYYCTRWGYYGTRGYFNVWGQGTLVTVSSASTKGPSVFPLAPSSKSTSGGTAALGCLVKDYFPEPVTVSWNSGALTSGVHTFPAVLQSSGLYSLSSVVTVPSSSLGTQTYICNVNHKPSNTKVDKKVEPKSC

Key:
Test in all cases: cell-based or functional assay
[1] = target: T1, six-transmembrane epithelial antigen of the prostate-1 (STEAP-1) (UniProt Q9UHE8 1-339, limits assumed)
T1 sequence (Q9UHE8 whole entry): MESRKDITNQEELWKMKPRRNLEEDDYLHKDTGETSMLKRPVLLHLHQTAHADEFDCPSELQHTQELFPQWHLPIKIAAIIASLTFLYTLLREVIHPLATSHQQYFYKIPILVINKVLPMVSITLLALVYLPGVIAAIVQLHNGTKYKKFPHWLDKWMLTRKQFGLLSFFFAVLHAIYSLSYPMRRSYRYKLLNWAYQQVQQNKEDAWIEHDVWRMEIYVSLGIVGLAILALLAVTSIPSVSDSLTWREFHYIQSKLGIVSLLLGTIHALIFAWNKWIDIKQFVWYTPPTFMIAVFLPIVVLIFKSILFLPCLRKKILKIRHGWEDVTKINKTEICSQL

[2] = target: T1, six-transmembrane epithelial antigen of …; remark: listed apart in the source
[3] = target: T1, six-transmembrane epithelial antigen of …; remark: listed apart in the source
[4] = target: T1, six-transmembrane epithelial antigen of …; remark: listed apart in the source
[5] = target: T1, six-transmembrane epithelial antigen of …; remark: listed apart in the source
[6] = target: T1, six-transmembrane epithelial antigen of …; remark: listed apart in the source

| Binder | Cell line cytotoxicity EC50 (pM), LNCaP [1] [pM] | EC50/pM, LNCaP tumor cell killing [2] [pM] | Cell line cytotoxicity EC50 (pM), LNCaP [3] [pM] | further results |
| --- | --- | --- | --- | --- |
| B1 | 89.1 |  |  | Cell line cytotoxicity EC50 (pM), 22RV1 [1]: 359 pM; Cell line cytotoxicity EC50 (pM), IM-95 [1]: 11.2 pM |
| B2 |  | 585 | 585 | Cell line cytotoxicity EC50 (pM), 22RV1 [3]: 2100 pM; Cell line cytotoxicity EC50 (pM), A673 [3]: 45.8 pM; Cell line cytotoxicity EC50 (pM), C4-2B [3]: 1150 pM; Cell line cytotoxicity EC50 (pM), IM-95 [3]: 147 pM |
| B3 |  | 235 | 235 |  |
| B4 |  | 239 | 239 |  |
| B5 |  | 260 | 260 |  |
| B6 |  | 123 | 123 |  |
| B7 | 44.5 | 45 |  | Cell line cytotoxicity EC50 (pM), 22RV1 [1]: 332 pM |
| B8 |  | 361 | 360 |  |
| B9 |  | 214 | 214 |  |
| B10 | 2220 |  |  | Cell line cytotoxicity EC50 (pM), 22RV1 [1]: > 10000 pM; Cell line cytotoxicity EC50 (pM), IM-95 [1]: 648 pM; Cell line cytotoxicity EC50 (pM), VCaP [1]: > 10000 pM; IC50 (pM), 22Rv1 tumor cell killing in the presence of CD8+ T cells [4]: > 10000 pM; IC50 (pM), VCaP tumor cell killing in the presence of CD8+ T cells [5]: > 10000 pM; IC50 (pM), LNCaP tumor cell killing in the presence of CD8+ T cells [6]: 1710 pM |
| B11 |  | 183 | 183 |  |
| B12 |  | 163 | 163 |  |
| B13 | 1310 | 1310 |  |  |
| B14 |  | 192 | 192 |  |
| B15 |  | 209 | 209 |  |
| B16 |  | 233 | 232 |  |
| B17 |  |  | 68.5 | Cell line cytotoxicity EC50 (pM), 22RV1 [3]: 171 pM; Cell line cytotoxicity EC50 (pM), A673 [3]: 17.3 pM; Cell line cytotoxicity EC50 (pM), IM-95 [3]: 11.6 pM |
| B18 |  |  | 0.2 | Cell line cytotoxicity EC50 (pM), 22RV1 [3]: 23.2 pM; Cell line cytotoxicity EC50 (pM), A673 [3]: 0.9 pM; Cell line cytotoxicity EC50 (pM), C4-2B [3]: 0.4 pM; Cell line cytotoxicity EC50 (pM), IM-95 [3]: 3.6 pM; Cell line cytotoxicity EC50 (pM), VCaP [3]: 1.2 pM |
| B19 | 5.2 |  |  |  |
| B20 | 7.9 |  |  |  |
